This experiment addresses T1, His-tagged soluble human PCDH10 (human).
T1 construct: also called sohPCDH10; sohPCDH10-His
Nature of the experiment: BLI. Particulars: both partners purified.

B1: WEEV virus-like particles (spike E2-E1) (complex)
chain 1: SITDDFTLTSPYLGFCPYCRHSAPCFSPIKIENVWDESDDGSIRIQVSAQFGYNQAGTADVTKFRYMSFDHDHDIKEDSMDKIAISTSGPCRRLGHKGYFLLAQCPPGDSVTVSITSGASENSCTVEKKIRRKFVGREEYLFPPVHGKLVKCHVYDHLKETSAGYITMHRPGPHAYKSYLEEASGEVYIKPPSGKNVTYECKCGDYSTGIVSTRTKMNGCTKAKQCIAYKSDQTKWVFNSPDLIRHTDHSVQGKLHIPFRLTPTVCPVPLAHTPTVTKWFKGITLHLTATRPTLLTTRKLGLRADATAEWITGTTSRNFSVGREGLEYVWGNHEPVRVWAQESAPGDPHGWPHEIIIHYYHRHPVYTVIVLCGVALAILVGTASSAACIAKARRDCLTPYALAPNATVPTALAVLCCIRPTNA
chain 2: FEHATTVPNVPGIPYKALVERAGYAPLNLEITVVSSELTPSTNKEYVTCRFHTVIPSPQVKCCGSLECKASSKADYTCRVFGGVYPFMWGGAQCFCDSENTQLSEAYVEFAPDCTIDHAVALKVHTAALKVGLRIVYGNTTAHLDTFVNGVTPGSSRDLKVIAGPISAAFSPFDHKVVIRKGLVYNYDFPEYGAMKPGAFGDIQASSLDATDIVARTDIRLLKPSVKNIHVPYTQAVSGYEMWKNNSGRPLQETAPFGCKIEVEPLRASNCAYGHIPISIDIPDAAFVRSSESPTILEVSCTVADCIYSADFGGSLTLQYKADREGHCPVHSHSTTAVLKEATTHVTAVGSITLHFSTSSPQANFIVSLCGKKTTCNAECKPPADHIIGEPHKVDQEFQAAVSKTSWNWLLALFGGASSLIVVGLIVLVCSSMLINTRR
Regarding B1, the Kd – broadly, the equilibrium constant for the complex coming apart – was 4.66 nM.
